Measurements: patent EP4233917A1, “ANTI-INFECTIVE CONJUGATE FOR USE IN THE TREATMENT OF ZIKA VIRUS INFECTION” (Universitat Pompeu Fabra, priority 2022, dated 2023)
Where two headings read alike, the source gives them in different places. Ends that are not written are not given here. Peptide text beside a SMILES is read from it. * marks the point of attachment. X1 = C=CC1=C(C)c2cc3[nH]c(cc4nc(cc5[nH]c(cc1n2)c(C)c5CCC(=O)*)C(CCC(=O)O)=C4C)c(C)c3C=C; X3 = C=CC1=C(C)c2cc3[nH]c(cc4nc(cc5[nH]c(cc1n2)c(C)c5CCC(=O)O)C(CCC(=O)*)=C4C)c(C)c3C=C; X2 = CCC1=C(C)c2cc3[nH]c(cc4nc(cc5[nH]c(cc1n2)c(C)c5CCC(=O)O)C(CCC(=O)*)=C4C)c(C)c3CC; X4 = CCC1=C(C)c2cc3[nH]c(cc4nc(cc5[nH]c(cc1n2)c(C)c5CCC(=O)*)C(CCC(=O)O)=C4C)c(C)c3CC

Assays:
[1] = Serum stability in human serum; format: in vitro ADME; details: for half-life at 0.05 mM: human serum (1:1 v/v with HEPES buffer), pH 7.8, 37 °C, read-out: Serum half-life time (converted)
Procedure: Next, 600 µL of the solution comprising the conjugate or peptide were mixed (1:1 v/v) with 600 µL of human serum, to reach a final concentration of 0.05 mM. The mixture was incubated at 37 °C and, at various time points, 50 µL (in triplicate) were taken and precipitated with 200 µL cold methanol. The samples were centrifuged at 13000 rpm, 10 min, +4 °C. Afterwards, 50 µL of each supernatant were injected on an LC-20AD instrument (Shimadzu) equipped with a Luna C18 column (4.6 mm × 50 mm, 3 µm, Phenomenex, USA) and analyzed using a 0%-95% linear gradient of MeCN into 0.1% TFA in H2O over 15 min with 1 mL/min flow rate. PDA detection at 220 nm and 401 nm was used and the half-life times were calculated by peak area integration at 401 nm, the λmax of MP and PP. Controls included blank serum (25 µL each of 1:1 v/v serum + HEPES buffer, then precipitation with 200 µL cold methanol), untreated conjugate/peptide (25 µL of 0.1 mM stock in HEPES buffer + 25 µL HEPES buffer, then precipitation with 200 µL cold methanol), and a zero-time sample (200 µL cold methanol + 25 µL serum + 25 µL 0.1 mM conjugate/peptide stock), the conjugate/peptide added last to avoid any contact with protease. Controls were analyzed by LC and LC-MS as described above.

[2] = tested on: HBEC-5i cells; details: 10 µM on apical side, 24 h incubation; percentage of compound in the basolateral side
Procedure: HBEC-5i cells were cultured as a monolayer (3) on T-flasks in DMEM:F12 supplemented with 10% (v/v) FBS, 1% (v/v) Pen-Strep and 1% (v/v) ECGS. Cells were grown in a humidified atmosphere of 5% CO2 at 37 °C (MCO-18AIC (UV), Sanyo, Japan) with the medium changed every other day. Cells were allowed to grow until confluence in a culture T-flask, then carefully harvested with trypsin-EDTA and seeded (8000 cells/well) into tissue culture 24-well inserts (4) (transparent polyester membrane with 1.0 µm pores) (BD Falcon, USA) pre-coated with attachment factor protein solution. The medium was changed every other day for 5-8 days, afterwards cells were washed with 1 × PBS followed by DMEM:F12 medium without phenol red. Next, the conjugates were diluted in DMEM:F12 without phenol red, until reaching a final 10 µM concentration, and were added to the apical side (1) of the in vitro BBB model.
(§2) Conjugate translocation was determined by fluorescence intensity (λex= 410 nm, λem = 625 nm for MP conjugates; λex=410 nm, λem=635 nm for PP conjugates). […] After 24 h incubation, samples from the basolateral side (2) were collected and analyzed. Fluorescence was measured in a Varioskan Lux plate reader (Thermo Scientific). PPC translocation (%) was calculated as follows: PPC translocation(%) = (F_i−Fcells)/(F_PPC−F_Medium) × 100 [formula] where Fi is the fluorescence intensity of the sample collected at the basolateral side (2), Fcells is the intrinsic fluorescence intensity of cells without incubation with a peptide-protein conjugate PPC, FPPC is the intensity of total PPC initially added to the transwell apical side (1), and FMedium is the intensity of DMEM:F12 medium without phenol red.

[3] = tested on: HBEC-5i cells; details: FD4 content in basolateral side after 24 h incubation with compound, then 2 h FD4; untreated BBB 10.3%
Procedure: (§3) After 24 h incubation with conjugates in the set-up shown in Figure 1, an in vitro integrity assay was performed. HBEC-5i (for BBB) or JEG-3 (for BPB) cells were washed twice with PBS and once with a medium without phenol red. DMEM:F12 medium was used with HBEC-5i cells and EMEM medium was used with JEG-3 cells. Then, previously diluted 4 kDa fluorescein isothiocyanate-dextran (FD4) (Sigma-Aldrich, Spain) in the medium indicated above for each cell line and without phenol red to an absorbance of 0.1 was added to the apical side (1) and incubated for 2 h. Samples were collected at the basolateral side (2), and fluorescence intensity was measured at λex=493 nm and λem=520 nm using a Varioskan Lux plate reader. Barrier integrity was evaluated from FD4 permeability as follows: FD4 Permeability(%) = (Fi −Fcells)/(FFD4 −FMedium) × 100 [formula] where Fi is the fluorescence intensity of the sample at the basolateral side (2), Fcells is the intrinsic fluorescence intensity of cells without FD4 incubation, FFD4 is the intensity of FD4 stock initially added to the apical side (1), and FMedium is the intensity of the medium indicated above for each cell line and without phenol red.

[4] = tested on: JEG-3 cells; details: 10 µM on apical side, 24 h incubation; percentage of compound in the basolateral side
Procedure: as §2
JEG-3 cells were cultured as a monolayer on T-flasks in EMEM supplemented with 10% (v/v) FBS and 1% (v/v) Pen-Strep. Cells were grown in a humidified atmosphere of 5% CO2 at 37 °C with the medium changed every other day. Cells were allowed to grow until confluence in a culture T-flask, then carefully harvested with trypsin-EDTA and seeded (3000 cells/well) onto rat-tail collagen-coated tissue culture 24-well inserts (4). A cellular monolayer (3) with low permeability was formed 5 days after the incubation on the tissue culture insert (4). BPB translocation and integrity measurement methods are identical to those for the BBB in vitro model defined above.

[5] = tested on: JEG-3 cells; details: FD4 content in basolateral side after 24 h incubation with compound, then 2 h FD4; untreated BPB 1.23%
Procedure: as §3
JEG-3 cells were cultured as a monolayer on T-flasks in EMEM supplemented with 10% (v/v) FBS and 1% (v/v) Pen-Strep. Cells were grown in a humidified atmosphere of 5% CO2 at 37 °C with the medium changed every other day. Cells were allowed to grow until confluence in a culture T-flask, then carefully harvested with trypsin-EDTA and seeded (3000 cells/well) onto rat-tail collagen-coated tissue culture 24-well inserts (4). A cellular monolayer (3) with low permeability was formed 5 days after the incubation on the tissue culture insert (4).

[6] = tested on: ZIKV^BR; details: virus pre-treated 1 h at 37 °C, in the dark, 0.01-50 µM
Procedure: ZIKV^BR was propagated in C6/36 cells using a multiplicity of infection (MOI) of 0.01. After infection, cells were cultured for 7 days. The culture medium collected from the infected cultures was centrifuged at 700 g to remove cellular debris, stored in aliquots at -80 °C and titrated by plaque assay.
To determine the effect of conjugates on ZIKV^BR as prepared above, 10^5 plaque forming units (PFU) were pre-treated with different concentrations of conjugates in the 0.01-50 µM range for 1 h at 37 °C, in the dark. After treatment, viral samples were serially diluted (10-fold) for titration by plaque assay. Samples were incubated for 1 h at 37 °C and 5% CO2 with Vero cells. After infection, the medium was removed and 1 mL DMEM containing 1% (v/v) FBS, 100 U/mL penicillin, 100 µg/mL streptomycin and 1.5% carboxymethylcellulose was added to each well. The plates were incubated at 37 °C and 5% CO2. After 5 days cells were fixed by 1 mL of 4% (v/v) formaldehyde in H2O for 30 min. Each plate was washed and stained with a 1% (v/v) crystal violet, 20% (v/v) ethanol solution. The number of plaques on each well was counted and corrected for well dilution to determine the pfu/mL number. The half-maximum inhibitory concentration (IC50) was determined by non-linear regression with sigmoidal profile and variable slope using the software Graphpad Prism (version 6.0), only on treatments that achieved total inhibition.

[7] = tested on: HBEC-5i cells; details: concentrations of up to 50 µM, 24 h
Procedure: (§4) HBEC-5i cells and JEG-3 cells were plated in attachment factor protein and rat-tail collagen, respectively, pre-coated 96-well flat bottom clear, black polystyrene plate (Corning, New York, USA). Afterwards cells were cultured in complete medium at 37 °C in a 5% CO2 atmosphere, with medium replaced every 2 days. When the cellular monolayer was formed, cells were treated with various concentrations of conjugates in the 6.25-50 µM range, for 24 h at 37 °C in a 5% CO2 atmosphere. Viability was evaluated by the CellTiter-Blue® assay (Promega, WI, USA), based on resazurin reduction into highly fluorescent resorufin by metabolically active cells. By distinguishing metabolic from non-metabolic cells, cytotoxicity can be indirectly determined. After incubation, cells were washed with PBS, pH 7.4, and 15 µL of CellTiterBlue® reagent in 100 µL of complete medium was added to the cells and incubated for 1.5 h at 37 °C in 5% CO2. Fluorescence (λex=560 nm, λem=590 nm), was measured in a Varioskan Lux plate reader. Complete medium and medium containing 0.25% Triton X-100 were used as positive and negative controls (100 and 0% viability), respectively. Cell viability (%) was determined as: Cell viability(%) = (F_treated−F_blank)/(F_(nontreated)−F_blank) × 100 [formula] where Ftreated is the fluorescence intensity of cells treated with a conjugate, Fnon treated is the fluorescence of untreated cells and Fblank is the fluorescence of CellTiterBlue® reagent in complete medium without cells.

[8] = tested on: JEG-3 cells; details: JEG-3, concentrations of up to 50 µM, 24 h
Procedure: as §4

[9] = tested on: ZIKV; details: read-out: IC50 value for inactivation of ZIKV, cited from earlier work
[10] = tested on: JEG-3 cells; assay: in vitro BPB integrity assay (FD4 permeability) after translocation assay; format: cell-based
[11] = tested on: ZIKV^BR; assay: ZIKV inactivation assay (plaque assay on Vero cells); format: cell-based, Zika virus; details: virus pre-treated 1 h at 37 °C, in the dark, 0.01-50 µM
[12] = tested on: HBEC-5i cells
Procedure: as §3

[13] = tested on: HBEC-5i cells; format: in vitro ADME; details: human, 24 h, 10 µM
Procedure: (§1) PPC translocation (%) was calculated as follows: […]

[14] = tested on: JEG-3 cells; format: in vitro ADME; details: human, 24 h, 10 µM
Procedure: as §1

Molecule | half-life at 0.05 mM [1] [h] | BBB translocation (%) [2] [%] | BBB FD4 (%) [3] [%] | BPB translocation (%) [4] [%] | BPB FD4 (%) [5] [%] | IC50 [6] [µM] | altered cell viability [7] | altered cell viability [8] | further results
CCC1=C(C)c2cc3[nH]c(cc4nc(cc5[nH]c(cc1n2)c(C)c5CCC(=O)N[C@@H](CO)C(=O)NCC(=O)N[C@H](C(=O)N[C@@H](CCC(N)=O)C(=O)N[C@@H](CCC(=O)O)C(=O)N[C@@H](CCC(=O)O)C(=O)N[C@@H](Cc1ccc(O)cc1)C(N)=O)[C@@H](C)O)C(CCC(=O)O)=C4C)c(C)c3CC [MP-P3] (X4-SGTQEEY-NH2) | 21.1 | 46.6 | 14.6 | 14.2 | 1.17 | 25.1 | none | none | 
C=Cc1c(C)c2cc3[nH]c(cc4nc(cc5nc(cc1[nH]2)C(C)=C5CCC(=O)[O-])C(CCC(=O)[O-])=C4C)c(C)c3C=C.[Co+2] [CoPPIX] |  |  |  |  |  |  |  |  | IC50 ([9]; with light activation): 5.79 µM; IC50 ([9]; without light activation): 2.49 µM
C=CC1=C(C)c2cc3[nH]c(cc4nc(cc5[nH]c(cc1n2)c(C)c5CCC(=O)O)C(CCC(=O)N[C@@H](CO)C(=O)NCC(=O)N[C@H](C(=O)N[C@@H](CCC(N)=O)C(=O)N[C@@H](CCC(=O)O)C(=O)N[C@@H](CCC(=O)O)C(=O)N[C@@H](Cc1ccc(O)cc1)C(N)=O)[C@@H](C)O)=C4C)c(C)c3C=C [PP-P3] (X3-SGTQEEY-NH2) | 3.7 | 43.2 | 9.6 | 18.9 | 1.79 | > 50 | none | none | 
C=CC1=C(C)c2cc3[nH]c(cc4nc(cc5[nH]c(cc1n2)c(C)c5CCC(=O)O)C(CCC(=O)NCCCC[C@H](NC(=O)[C@H](Cc1ccc(O)cc1)NC(=O)[C@H](CCC(=O)O)NC(=O)[C@H](CCC(=O)O)NC(=O)[C@H](CCC(N)=O)NC(=O)[C@@H](NC(=O)CNC(=O)[C@@H](N)CO)[C@@H](C)O)C(N)=O)=C4C)c(C)c3C=C [Compound P4-PP] (H-SGTQEEYK(X3)-NH2) | 3.3 | 42.8 | 10.6 | 15.6 | 1.2 | > 50 | none | none | 
CCC1=C(C)c2cc3[nH]c(cc4[nH]c(cc5nc(cc1n2)C(C)=C5CC)c(C)c4CCC(=O)O)c(CCC(=O)O)c3C [MP, mesoporphyrin IX] |  |  |  |  |  |  |  |  | BPB FD4 (%) [10]: 1.68%; IC50 [11]: > 50 µM; BBB FD4 (%) [12]: 17.9%
C=CC1=C(C)c2cc3[nH]c(cc4nc(cc5[nH]c(cc1n2)c(C)c5CCC(=O)N[C@H](C(=O)N[C@@H](CCC(N)=O)C(=O)N[C@@H](CCC(N)=O)C(=O)N[C@@H](CC(C)C)C(=O)N[C@H](C(=O)N[C@@H](CCCCN)C(=O)N[C@@H](CCCNC(=N)N)C(=O)N[C@@H](Cc1ccccc1)C(=O)N[C@@H](CO)C(=O)N[C@@H](CC(C)C)C(N)=O)[C@@H](C)O)C(C)C)C(CCC(=O)O)=C4C)c(C)c3C=C [(I)] (X1-VQQLTKRFSL-NH2) | 22.2 | 43.6 | 13.6 | 21.2 | 0.83 |  | none | none | 
C=CC1=C(C)c2cc3[nH]c(cc4nc(cc5[nH]c(cc1n2)c(C)c5CCC(=O)NCCCC[C@H](NC(=O)[C@H](CC(C)C)NC(=O)[C@H](CO)NC(=O)[C@H](Cc1ccccc1)NC(=O)[C@H](CCCNC(=N)N)NC(=O)[C@H](CCCCN)NC(=O)[C@@H](NC(=O)[C@H](CC(C)C)NC(=O)[C@H](CCC(N)=O)NC(=O)[C@H](CCC(N)=O)NC(=O)[C@@H](N)C(C)C)[C@@H](C)O)C(N)=O)C(CCC(=O)O)=C4C)c(C)c3C=C [Compound P2-PP] (H-VQQLTKRFSLK(X1)-NH2) | 3.6 | 35.1 | 13.7 | 7.9 | 0.90 | > 50 | none | none | 
CCC1=C(C)c2cc3[nH]c(cc4nc(cc5[nH]c(cc1n2)c(C)c5CCC(=O)O)C(CCC(=O)NCCCC[C@H](NC(=O)[C@H](CC(C)C)NC(=O)[C@H](CO)NC(=O)[C@H](Cc1ccccc1)NC(=O)[C@H](CCCNC(=N)N)NC(=O)[C@H](CCCCN)NC(=O)[C@@H](NC(=O)[C@H](CC(C)C)NC(=O)[C@H](CCC(N)=O)NC(=O)[C@H](CCC(N)=O)NC(=O)[C@@H](N)C(C)C)[C@@H](C)O)C(N)=O)=C4C)c(C)c3CC [Compound P2-MP] (H-VQQLTKRFSLK(X2)-NH2) | 10.7 | 25.5 | 14.5 | 6.9 | 1.30 | > 50 | none | none | 
C=CC1=C(C)c2cc3[nH]c(cc4nc(cc5[nH]c(cc1n2)c(C)c5CCC(=O)O)C(CCC(=O)O)=C4C)c(C)c3C=C [PP, protoporphyrin IX] |  |  |  |  |  |  |  |  | BBB translocation (%) [13]: 47.8%; BPB translocation (%) [14]: 14.2%; BPB FD4 (%) ([10]; human, 2 h, 10 µM): 0.87%; IC50 ([11]; Zika virus, Vero): > 50 µM; BBB FD4 (%) ([12]; human, 2 h, 10 µM): 24.7%
CCC1=C(C)c2cc3[nH]c(cc4nc(cc5[nH]c(cc1n2)c(C)c5CCC(=O)N[C@H](C(=O)N[C@@H](CCC(N)=O)C(=O)N[C@@H](CCC(N)=O)C(=O)N[C@@H](CC(C)C)C(=O)N[C@H](C(=O)N[C@@H](CCCCN)C(=O)N[C@@H](CCCNC(=N)N)C(=O)N[C@@H](Cc1ccccc1)C(=O)N[C@@H](CO)C(=O)N[C@@H](CC(C)C)C(N)=O)[C@@H](C)O)C(C)C)C(CCC(=O)O)=C4C)c(C)c3CC [MP-P1] (X4-VQQLTKRFSL-NH2) | 16.2 | 30 | 19.9 | 6.9 | 1.16 | > 50 | none | none | 
VQQLTKRFSL-NH2 [Peptide having SEQ ID NO1, reference compound] |  |  |  |  |  |  |  |  | Serum half-life time ([1]; 0.05 mM, 37 °C): 0.73 h
CCC1=C(C)c2cc3[nH]c(cc4nc(cc5[nH]c(cc1n2)c(C)c5CCC(=O)O)C(CCC(=O)NCCCC[C@H](NC(=O)[C@H](Cc1ccc(O)cc1)NC(=O)[C@H](CCC(=O)O)NC(=O)[C@H](CCC(=O)O)NC(=O)[C@H](CCC(N)=O)NC(=O)[C@@H](NC(=O)CNC(=O)[C@@H](N)CO)[C@@H](C)O)C(N)=O)=C4C)c(C)c3CC [Compound P4-MP] (H-SGTQEEYK(X2)-NH2) | 3 | 45.8 | 15.6 | 13 | 1.1 | > 50 | none | none | 
